B1: RHOBTB3 (parent)
chain: KVVEAHKIVLCAVSHVFMLLFNVK
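Note: lentivirally expressed fusions sorted by FACS into six bins by GFP to DsRed ratio, PSI derived from sequencing read proportions per bin multiplied by bin number.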

In this data set the parent is B1. Kind of data set: protein stability index of a GFP-peptide fusion (GPS, HEK-293T) (PSI 1-6); higher = more stable. Particulars: c terminus: a fixed tail appended.
KVVEAHKIVLCYVSHVFMLLFNVK: the protein stability index came out at 2.46. The value for KVVEAHKIVLCVVSHVFMLLFNVK was 2.57; that for KVVEAHKIVLCTVSHVFMLLFNVK was 1.6. The figure for KVVEAHKIVLCAVSHVFMLSFNVK is 2.6. The value for KVVEAHKIVLCAVSHVFMLIFNVK was 1.74. For KVVEAHKIVLCAVSHVFMLQFNVK, the protein stability index was 2.37. For KVVEAHKIVLCAVSHVFMLAFNVK, the protein stability index was determined as 3.27. The figure for KVVEAHKIVLCAVSHVFMLRFNVK is 1.77. The value for KVVEAHKIVLCAVSHVFMLYFNVK was 3.49; that for KVVEAHKIVLCAVSHVFMLMFNVK was 2.63; that for KVVEAHKIVLCAVSHVFMLKFNVK was 1.89. The figure for KVVEAHKIVLCAVSHVFMLPFNVK is 2.49; for KVVEAHKIVLCAVSHVFMLVFNVK it is 2.42; for KVVEAHKIVLCAVSHVFMLNFNVK it is 3.15. As to KVVEAHKIVLCAVSHVFMLFFNVK, the protein stability index stood at 2.97. The value for KVVEAHKIVLCAVSHVFMLEFNVK was 1.65.

As for KVVEAHKIVLCAVSHVFMLHFNVK, the protein stability index amounted to 3.28. The figure for KVVEAHKIVLCAVSHVFMLGFNVK is 1.26; for KVVEAHKIVLCAVSHVFMLDFNVK it is 3.54.

On to KVVEAHKIVLCAVSHVFMLWFNVK, for which the protein stability index was 1.9.

KVVEAHKIVLCAVSHVFNLLFNVK: the protein stability index was 3.02. Consider KVVEAHKIVLCAVSHVFELLFNVK, for which the protein stability index stood at 2.48. Turning to KVVEAHKIVLCAVSHVFQLLFNVK, the protein stability index came out at 2.43.

On to KVVEAHKIVLCAVSHVFSLLFNVK, for which the protein stability index was 1.95. The figure for KVVEAHKIVLCAVSHVFTLLFNVK is 2.23; for KVVEAHKIVLCAVSHVFALLFNVK it is 3.04. The figure for KVVEAHKIVLCAVSHVFRLLFNVK is 1.14. The value for KVVEAHKIVLCAVSHVFCLLFNVK was 2.3; that for KVVEAHKIVLCAVSHVFILLFNVK was 3.05; that for KVVEAHKIVLCAVSHVFKLLFNVK was 1.55. Regarding KVVEAHKIVLCAVSHVFFLLFNVK, the protein stability index worked out at 3.57. Turning to KVVEAHKIVLCAVSHVFPLLFNVK, the protein stability index stood at 2.3.

In the case of KVVEAHKIVLCAVSHVFYLLFNVK, the protein stability index worked out at 2.5.

Take KVVEAHKIVLCAVSHVFDLLFNVK: the protein stability index is 1.92. Regarding KVVEAHKIVLCAVSHVFHLLFNVK, the protein stability index was determined as 2.34. For the variant KVVEAHKIVLCAVSHVFGLLFNVK, the protein stability index worked out at 2.75.

Turning to KVVEAHKIVLCAVSHVFLLLFNVK, the protein stability index is 3.85. The value for KVVEAHKIVLCAVSHVFMLLFNVC was 2.8. The figure for KVVEAHKIVLCAVSHVFMLLFNVG is 2.28. The value for KVVEAHKIVLCAVSHVFMLLFNVI was 2.06.

For the variant KVVEAHKIVLCAVSHVFMLLFNVD, the protein stability index was determined as 3.08. The figure for KVVEAHKIVLCAVSHVFMLLFNVE is 3.19; for KVVEAHKIVLCAVSHVFMLLFNVF it is 2.39; for KVVEAHKIVLCAVSHVFMLLFNVH it is 1.55.

On to KVVEAHKIVLCAVSHVFMLLFNVA, for which the protein stability index was 3.31. The figure for KVVEAHKIVLCAVSHQFMLLFNVK is 3.14. The figure for KVVEAHKIVLCAVSHNFMLLFNVK is 3.11; for KVVEAHKIVLCAVSHAFMLLFNVK it is 2.97.

Consider KVVEAHKIVLCAVSHEFMLLFNVK, for which the protein stability index worked out at 3.26. On to KVVEAHKIVLCAVSHDFMLLFNVK, for which the protein stability index stood at 2.39. As to KVVEAHKIVLCAVSHRFMLLFNVK, the protein stability index amounted to 2.79.

With KVVEAHKIVLCAVSHCFMLLFNVK, the protein stability index is 3.59. The value for KVVEAHKIVLCAVSHFFMLLFNVK was 2.99; that for KVVEAHKIVLCAVSHHFMLLFNVK was 2.98; that for KVVEAHKIVLCAVSHYFMLLFNVK was 2.19. The figure for KVVEAHKIVLCAVSHTFMLLFNVK is 3.44.

On to KVVEAHKIVLCAVSHMFMLLFNVK, for which the protein stability index is 2.3. The value for KVVEAHKIVLCAVSHGFMLLFNVK was 3.44; that for KVVEAHKIVLCAVSHPFMLLFNVK was 3.16.

As for KVVEAHKIVLCAVSHSFMLLFNVK, the protein stability index worked out at 3.16. The figure for KVVEAHKIVLCAVSHLFMLLFNVK is 2.43.

KVVEAHKIVLCAVSHIFMLLFNVK: the protein stability index amounted to 2.65.

On to KVVEAHKIVLCAVSHKFMLLFNVK, for which the protein stability index amounted to 3.55. The value for KVVEAHKIVLCAVSHWFMLLFNVK was 3.09. The figure for KVVEAHKIVLCAVSHVFMPLFNVK is 2.31; for KVVEAHKIVLCAVSHVFMELFNVK it is 2.2.

For KVVEAHKIVLCAVSHVFMWLFNVK, the protein stability index was found to be 3.11. On to KVVEAHKIVLCAVSHVFMCLFNVK, for which the protein stability index was determined as 2.24. The value for KVVEAHKIVLCAVSHVFMGLFNVK was 2.75. For KVVEAHKIVLCAVSHVFMTLFNVK, the protein stability index was 3.4. The value for KVVEAHKIVLCAVSHVFMRLFNVK was 3.74.

Consider KVVEAHKIVLCAVSHVFMYLFNVK, for which the protein stability index stood at 2.59. The figure for KVVEAHKIVLCAVSHVFMNLFNVK is 2.18. For KVVEAHKIVLCAVSHVFMILFNVK, the protein stability index came to 3.67. The figure for KVVEAHKIVLCAVSHVFMALFNVK is 2.69. The figure for KVVEAHKIVLCAVSHVFMSLFNVK is 2.2.

As for KVVEAHKIVLCAVSHVFMFLFNVK, the protein stability index is 3.32. The value for KVVEAHKIVLCAVSHVFMDLFNVK was 3.41; that for KVVEAHKIVLCAVQHVFMLLFNVK was 1.94. The value for KVVEAHKIVLCAVGHVFMLLFNVK was 2.17; that for KVVEAHKIVLCAVVHVFMLLFNVK was 2.49. The figure for KVVEAHKIVLCAVDHVFMLLFNVK is 2.17. As for KVVEAHKIVLCAVIHVFMLLFNVK, the protein stability index is 2.88.

Take KVVEAHKIVLCAVRHVFMLLFNVK: the protein stability index was 1.41. Regarding KVVEAHKIVLCAVYHVFMLLFNVK, the protein stability index is 2.55.

On to KVVEAHKIVLCAVKHVFMLLFNVK, for which the protein stability index is 2.65. Regarding KVVEAHKIVLCAVFHVFMLLFNVK, the protein stability index came out at 2.8. The value for KVVEAHKIVLCAVTHVFMLLFNVK was 2.95.

Consider KVVEAHKIVLCAVMHVFMLLFNVK, for which the protein stability index was found to be 3.96.

For the variant KVVEAHKIVLCAVAHVFMLLFNVK, the protein stability index turned out to be 2.36.

As for KVVEAHKIVLCAVPHVFMLLFNVK, the protein stability index was 2.55.

With KVVEAHKIVLCAVNHVFMLLFNVK, the protein stability index was determined as 3.59. For KVVEAHKIVLCAVHHVFMLLFNVK, the protein stability index was determined as 3.58.

On to KVVEAHKIVLCAVLHVFMLLFNVK, for which the protein stability index came to 2.6.

The values above are taken from the supplement of paper PMC10567573.
